Substitutions are numbered along the chain they refer to. Read-outs that look alike come from different tables or passages of the source. One block for each binder: values may come before it.
How the values were obtained:
[1] = target: T1, recombinant mouse PD-L2 (Sino Biological, cat 50804-M08H-B) (mouse, UniProt Q9WUL5 20-219); experiment: ELISA on recombinant mPD-L2 according to the legend; the y axis on the sheet reads 'Mean fluorescent unit'
T1 construct: Bought protein; also called recombinant mPD-L2; recombinant mPDL2
T1 sequence (looked up): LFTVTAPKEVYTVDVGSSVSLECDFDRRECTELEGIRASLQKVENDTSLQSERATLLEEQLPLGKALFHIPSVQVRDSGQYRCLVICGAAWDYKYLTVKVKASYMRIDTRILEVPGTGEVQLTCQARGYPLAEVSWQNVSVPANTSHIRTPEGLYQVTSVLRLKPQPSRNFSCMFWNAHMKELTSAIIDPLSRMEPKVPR

[2] = target: T2, human PD-L2 on CHO-K1 cells over-expressing hPDL2-GFP (human, UniProt Q9BQ51 20-273); experiment: flow cytometry on CHO-K1 cells expressing hPD-L2, median fluorescence
T2 construct: whole, on cells; also called cellular hPD-L2; cellular PDL2; not shown: GFP of the hPDL2-GFP construct
T2 sequence (looked up): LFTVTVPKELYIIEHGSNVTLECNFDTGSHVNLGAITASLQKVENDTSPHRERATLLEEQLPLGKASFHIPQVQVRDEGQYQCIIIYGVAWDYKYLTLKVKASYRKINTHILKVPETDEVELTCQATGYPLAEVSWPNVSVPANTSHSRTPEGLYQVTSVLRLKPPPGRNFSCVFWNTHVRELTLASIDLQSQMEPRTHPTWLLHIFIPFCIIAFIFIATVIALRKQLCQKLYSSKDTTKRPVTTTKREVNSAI
Method: (§1) CHO-K1 cells over-expressing either hPDL2-GFP or mPD-L2 GFP were detached, washed in phosphate buffered saline (PBS) and adjusted to a cell concentration of around 1 million cells in cytometry buffer (CB, PBS containing 1% […]). Around 80,000 cells were then distributed into a round-bottom 96 well plate and the plate was centrifuged for 3 minutes at 400 g at 4° C. and supernatant discarded. Appropriate antibody concentrations in 50 microliter volumes were added to the wells and incubated for 30 minutes at 6-8° C. The plate was washed 3 times with PBS and relevant secondary antibodies (either AlexaFluor 647 Goat anti-Mouse IgG (H+L) (Invitrogen A21235/lot 1915807) or AlexaFluor 647 Goat anti-Rat IgG (H+L) (Invitrogen A21247/lot 1921562) were added for 30 minutes at 4° C. Cells were again washed with PBS two times, resuspended in CB and analyzed in either the Sony ID7000 Spectral Cell analyzer (Sony) or the GALLIOS Flow Cytometer (Beckman-Coulter) was used. EC₅₀ was calculated using the Sigmoidal 4PL equation of the GraphPad Prism-9 software.

[3] = target: T2, human PD-L2 on CHO-K1 cells …; experiment: flow cytometry blocking assay: antibody titrated against recombinant hPD-1 (constant 15 micrograms/mL) binding to CHO-K1 cells expressing hPD-L2; signal falls with the antibody; column head on the sheet is EC50
Method: CHO-K1 cells over-expressing either hPDL2-GFP were detached, washed in phosphate buffered saline (PBS) and adjusted to a cell concentration of around 1 million cells in CB. Around 80,000 cells were then distributed into a round-bottom 96 well plate and the plate was centrifuged for 3 minutes at 400 g at 4° C. and supernatant discarded. A constant concentration of ligand recombinant hPD-1 ligand (Sino Biological 10377-H08H/lot LC13JA2207) of 15 micrograms/mL was incubated with respective concentration of antibody, added to the cells and incubated for 30 min at 6-8° C. Cells were washed 3 times in PBS and then incubated with a rabbit polyclonal anti-His (Abcam Ab1187/lot GR3369369-1) in CB and subsequently washed three times in PBS. Cells were then incubated with a labeled anti-rabbit secondary (AlexaFluor 647 Goat anti-Rabbit IgG (H+L) (Invitrogen A21244/lot 1910774) for 15 minutes at 4° C., washed two times in PBS, resuspended in CB and analyzed in the Sony ID7000 Spectral Cell analyzer (Sony).

[4] = target: T2, human PD-L2 on CHO-K1 cells …; experiment: binding to cellular PDL2 (FIG. 1A by the text; flow cytometry on CHO-K1 cells expressing hPD-L2)
Method: as §1

[5] = target: T3, human PD-L2 on CHO-K1 cells of the Promega PD-1/PD-L2 blockade bioassay (human, UniProt Q9BQ51 20-273); experiment: cell-based or functional assay
T3 sequence (looked up): T2 sequence (looked up)

[6] = target: T3, human PD-L2 on CHO-K1 cells of the …; experiment: cell-based or functional assay; remark: listed apart in the source
[7] = target: T4, mouse PD-L2 on CHO-K1 cells over-expressing mPD-L2 GFP (mouse, UniProt Q9WUL5 20-247); experiment: flow cytometry on CHO-K1 cells overexpressing mPD-L2, mean fluorescence
T4 construct: whole, on cells; also called cellular mPD-L2; not shown: GFP of the mPD-L2 GFP construct
T4 sequence (looked up): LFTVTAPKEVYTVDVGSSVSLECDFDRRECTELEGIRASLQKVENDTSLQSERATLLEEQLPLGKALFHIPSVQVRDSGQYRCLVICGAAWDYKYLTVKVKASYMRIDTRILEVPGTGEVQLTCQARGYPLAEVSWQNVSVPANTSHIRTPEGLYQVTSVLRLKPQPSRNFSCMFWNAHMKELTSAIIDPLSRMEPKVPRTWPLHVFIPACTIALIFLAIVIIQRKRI
Method: as §1

[8] = target: T5, recombinant human PD-L2 (human PD-L2 antigen) (human, UniProt Q9BQ51 20-219, limits assumed); experiment: SPR (Biacore 8K), single cycle kinetics, antibody in culture supernatant, human PD-L2 antigen
T5 construct: The Biacore analyte and the ELISA antigen are only called human PD-L2 antigen / recombinant hPD-L2; Whole entry named; also called hPD-L2; recombinant hPD-L2
T5 sequence (looked up): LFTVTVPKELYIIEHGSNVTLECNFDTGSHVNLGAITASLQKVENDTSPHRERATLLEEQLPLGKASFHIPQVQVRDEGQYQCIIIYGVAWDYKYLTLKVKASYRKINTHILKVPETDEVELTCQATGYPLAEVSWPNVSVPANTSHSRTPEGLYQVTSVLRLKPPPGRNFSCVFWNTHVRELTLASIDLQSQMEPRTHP
Text: Table 2: Single cycle kinetic parameters of chimeric (VH0/VK0) and humanized variants (tested as cell culture supernatants) binding to human PD-L2 antigen as determined using the Biacore 8K. As used herein, the term “KD” is intended to refer to the dissociation equilibrium constant of a particular antibody-antigen interaction, ka is the binding rate constant and kd is the dissociation rate constant. The binding affinity of antibodies of the disclosed invention may be measured or determined by standard antibody-antigen assays. The relative KD was calculated by dividing the KD of the humanized variant by that of the VH0/VK0 assayed in the same experiment.

EC50 (read off the curve) [1]: ~0.5 nM
EC50 [2]: 0.538 nM
EC50 [3]: 0.6 nM
EC50 [4]: 0.219 nM
EC50 (PD-1/PD-L2 blockade reporter assay, luminescence) [5]: 1.11 nM
B1: VH0/VK0-mIgG1 (parental murine monoclonal antibody VHP/VKP on mIgG1 backbone) (antibody, V domains shown)
VH: QVQLQQSGAELVRPGTSVKVSCKASGYAFSNYFIEWVKQRPGQGLEWIGLNIPGSGGSNYAEKFKGKATLTADKSSSTAYMQLSSLTSEDSAVYFCARRRLPPDWYFDVWGTGTTVTVSS
VL: DVVMTQTPLSLPVSLGDQASISCRSSQSLVHSDGNTYLHWYLQKPGQSPKLLIYKVSNRFSGVPDRFSGSGSGTDFTLKISRVEAEDLGVYFCSQSTHVPWTFGGGTKLEIK
notes: Murine IgG1 backbone; also called parental mouse antibody

EC50 (PD-1/PD-L2 blockade reporter assay, luminescence) [6]: 1.29 nM
EC50 [7]: 0.23 nM
Kd [8]: 0.0528 nM
Relative KD (KD of variant / KD of VH0/VK0) [8]: 1.47
koff [8]: 0.000121 s⁻¹
B2: VH8/VK2 (antibody, V domains shown)
VH: QVQLVQSGAEVKKPGSSVKVSCKASGYAFSNYFIEWVKQPPGKGLEWIGLNIPGSGGSNYAEKFKGRATITADKSTSTAYMELSSLRSEDTAVYYCARRRLPPDWYFDVWGQGTTVTVSS
VL: B1 VL with T7S, S14T, D17Q, Q18P, L42Q, S48P, L88V, F92Y, L109V
notes: hIgG1 backbone, CHO expressed

Source: patent US20250179187A1 (REJUVERON SENESCENCE THERAPEUTICS, published 2025)
